Patent publication US20110189095A1, “CRKL TARGETING PEPTIDES” (The Board of Regents, of the University of Texas System, priority 2008, published 2011)

What was measured:
CRKL [1] = target: T1, CRKL (Homo sapiens, UniProt P46109); assay: Phage binding assay on purified recombinant protein; design: The open reading frame of full-length CRKL cDNA (Invitrogen) was PCR-amplified and cloned in a pET28a (Novagen) expression vector; His-tag; made in house; host or cells: E. coli BL21
Protocol: Phage binding assays on purified proteins were carried out as described (Giordano et al. 2001). Recombinant proteins were coated on microtiter wells as previous described (Cardo-Vila et al., 2003; Smith and Scott, 1993). Briefly, proteins were immobilized on microtiter wells overnight at 4° C. 50 μl of 1 μg/ml in PBS. Wells were washed twice with PBS, blocked with PBS containing 3% BSA for 2 hours at room temperature, and incubated with 10^9 T.U. wild-type tumor-homing phage ([…]; SEQ ID NO:1), scrambled phage ([…] (SEQ ID NO:26), […] (SEQ ID NO:27), […] (SEQ ID NO:29), […] (SEQ ID NO:30)), mutant phage ([…] (SEQ ID NO:25), […] (SEQ ID NO:28)), PSI-derived cyclic phage (CNSTFLQEGMPTSAC; SEQ ID NO:23) or fd-tet phage in 50 μl of PBS containing 1.5% BSA. After 1 hour at room temperature, wells were washed ten times with PBS and phage were recovered by bacterial infection. ELISA with polyclonal anti-CKRL confirmed the presence and concentration of the CKRL recombinant proteins on the wells. […] After 3 hours, binding of CKRL to integrins was detected by using an anti-CKRL antibody followed by an HRP-conjugated anti-rabbit IgG. […]

CRKL [2] = target: T1, CRKL; assay: Binding assays with recombinant gst-PSI fusion proteins
From the text: FIG. 3A-D: Receptor binding by peptides. FIG. 3A, the recombinant His-tag CRKL (rCRKL), rCRKL-SH3 (N) domain, and rCRKL-SH3 (C) domain bind to the tumor-homing peptide-[…] (SEQ ID NO:1). FIG. 3B, the recombinant His-tag rCRKL, rCRKL-SH3 (N) domain, and rCRKL-SH3 (C) domain bind to the synthetic peptide NSTFLQEGMPTSA (SEQ ID NO:23) corresponding to a region in the PSI domain. FIG. 3C, recombinant gst fusion protein of the entire PSI domain (residues 22-82. SEQ ID NO: 71-[…]), gst-PSI linear (residues 48-62, SEQ ID NO: 72-TNSTFLQEGMPTSAR), gst-PSI cyclic (residues […], SEQ ID NO: 72-CTNSTFLQEGMPTSARC) were generated for binding assays. Both the linear and the cyclic PSI-derived regions bind to CRKL. FIG. 3D, the binding activity of the tumor-homing peptide to rCRKL-SH3 (C) domain is inhibited by the tumor-homing ([…]; SEQ ID NO:1) peptide, by the PSI-derived (NSTFLQEGMPTSA; SEQ ID NO:23) peptide or tumor-homing phage displaying SEQ ID NO:1. Bars represent mean±standard deviation from triplicate wells.
CRKL mutants in the SH3 domain (carboxyl terminal) were generated by PCR mutagenesis. Primer sets were designed to remove 60 bp (Δ1 and Δ2) and 54 bp (Δ3) and maintain the reading frame. For the PSI domain constructs, cyclic and linear peptide forms of the PSI domain were produced. […] Protein-protein interactions were detected by using an antibody against gst.

[3] = system: human prostate cancer xenografts (DU145-derived); assay: Therapy in tumor-bearing mice (tumor volume); format: in vivo, nude mice; settings: equimolar amounts, systemically administered, vs untreated or vehicle
From the text: Finally, a pilot pre-clinical trial that included four cohorts of size-matched tumor-bearing mice was designed and conducted (FIG. 11). Animals received the following reagents: (i) the synthetic PSI domain-mimic peptide, (ii) the synthetic PSI domain-mimic peptide linked to a pro-apoptotic peptidomimetic (Arap et al., 2004; Ellerby et al., 1999; Kolonin et al., 2004; Zurita et al., 2004) in order to induce targeted apoptosis upon receptor-mediated internalization, (iii) the synthetic pro-apoptotic peptidomimetic alone, or (iv) vehicle alone. All peptides or peptidomimetics were administered at equimolar concentrations.
DU145 tumor-bearing mice were size-matched and divided into individual cohorts (n=4 mice per group). The tumor-homing peptide […] (SEQ ID NO:1) was synthesized fused with the proapoptotic motif D(KLAKLAK)2. Unconjugated peptide […] (SEQ ID NO:1) or D(KLAKLAK)2 served as controls. The synthetic peptides were systemically administered and tumor volumes measured as described (Arap et al., 1998; Arap et al., 2004).

DU145 cells = assay: Peptide internalization assay (WST-1 cell viability, annexin-V staining); format: cell-based, human; settings: DU145 cells; measured by cell viability and annexin-V
Protocol: The internalization capability of the tumor-homing peptide fused through a glycinylglycine bridge to a pro-apoptotic sequence was tested as described Arap et al., 2004; Ellerby et al., 1999; Kolonin et al., 2004; Zurita et al., 2004). The conjugated tumor-homing peptide, […] (SEQ ID NO:67)-D(KLAKLAK)2 or the untargeted control peptide D(KLAKLAK)2 were synthesized and increasing equimolar peptide concentrations were added to the DU145 cells. Cell viability was assayed by the WST-1 reagent (Roche) and annexin-V staining for apoptosis (Zurita et al., 2004; Cardo-Vila et al., 2003). For tumor-homing phage localization studies, cells were incubated with 10^9 T.U. tumor-homing ([…]; SEQ ID NO:1) or a negative control (fd-tet) phage for 6 and 24 hours. Wells were washed with 20 mM glycine to remove non-specific cell surface bound phage and then fixed with 4% paraformaldehyde. The non-permeabilized cells were incubated with rabbit anti-fd bacteriophage antibody (Sigma) for 2 hours at room temperature followed by 1 hour incubation with Cy3-labeled anti-rabbit IgG antibody (Jackson ImmunoResearch). Cells were again fixed with 4% paraformaldehyde and mounted in the presence of DAPI (Vector Laboratories) and images were acquired with an Olympus fluorescence microscope.

rCRKL-SH3 (C) domain [4] = target: T2, rCRKL-SH3 (C) domain (Homo sapiens, UniProt P46109); assay: Peptide binding assay with recombinant His-tag proteins (ELISA)
T2 construct: cDNAs corresponding to each of the SH domains were PCR-amplified and cloned into the Sac I and Xho I restriction sites; His-tag; made in house; host or cells: E. coli BL21
Protocol: (§1) Synthetic tumor-homing peptide ([…]; SEQ ID NO:1) or PSI-derived peptide (NSTFLQEGMPTSA; SEQ ID NO:23) were coated on microtiter plates followed by blocking, and washing. The following recombinant His-tag proteins were added to the coated plates: rCRKL, rCRKL-SH2 domain, rCRKL-SH3 (N) domain, and rCRKL-SH3 (C) domain. An unrelated control protein (α2-Heremans-Schmid glycoprotein; AHSG) served as a negative control. The mixtures were incubated, washed, and labeled with the appropriate antibodies. Secondary antibodies conjugated to horse-radish peroxidase (HRP) were added followed by adding TMB substrate (Calbiochem), and analyzed by an automated ELISA reader (Bio-Tek). To determine the inhibitory activity of the tumor-homing peptide, the PSI-derived peptide, or the phage clone displaying the corresponding tumor-homing peptide were incubated with the rCRKL-SH3 (C) domain. Unrelated cyclic peptide sequences and insertless phage (fd-tet) served as negative controls. The admixtures were incubated and added to wells coated with the tumor-homing peptide. After incubation, the wells were washed, labeled with the appropriate antibodies, and processed as above.

rCRKL = target: T3, rCRKL (Homo sapiens, UniProt P46109); assay: as above; settings: peptide coated on microtiter plates
T3 construct: The open reading frame of full-length CRKL cDNA (Invitrogen) was PCR-amplified and cloned in a pET28a (Novagen) expression vector; His-tag; made in house; host or cells: E. coli BL21
Protocol: as §1

rCRKL-SH3 (N) domain = target: T4, rCRKL-SH3 (N) domain (Homo sapiens, UniProt P46109); assay: as above; settings: peptide coated on microtiter plates
T4 construct: cDNAs corresponding to each of the SH domains were PCR-amplified and cloned into the Sac I and Xho I restriction sites; His-tag; made in house; host or cells: E. coli BL21
Protocol: as §1

rCRKL-SH2 domain = target: T5, rCRKL-SH2 domain (Homo sapiens, UniProt P46109); assay: as above; settings: peptide coated on microtiter plates
T5 construct: cDNAs corresponding to each of the SH domains were PCR-amplified and cloned into the Sac I and Xho I restriction sites; His-tag; made in house; host or cells: E. coli BL21
Protocol: as §1

rCRKL-SH3 (C) domain [5] = target: T2, rCRKL-SH3 (C) domain; assay: Inhibition of rCRKL-SH3 (C) domain binding to coated tumor-homing peptide; settings: inhibitor pre-incubated with rCRKL-SH3 (C)
Protocol: as §1

T1 sequence (P46109 whole entry): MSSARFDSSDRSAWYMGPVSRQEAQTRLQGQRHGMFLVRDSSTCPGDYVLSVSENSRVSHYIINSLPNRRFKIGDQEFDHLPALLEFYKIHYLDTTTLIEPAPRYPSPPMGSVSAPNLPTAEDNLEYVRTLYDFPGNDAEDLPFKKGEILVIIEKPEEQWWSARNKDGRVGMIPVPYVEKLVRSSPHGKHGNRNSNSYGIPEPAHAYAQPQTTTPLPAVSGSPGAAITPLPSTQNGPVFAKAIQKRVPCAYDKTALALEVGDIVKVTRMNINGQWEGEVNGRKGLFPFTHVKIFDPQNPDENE
T2 sequence (P46109 235-296 limits assumed): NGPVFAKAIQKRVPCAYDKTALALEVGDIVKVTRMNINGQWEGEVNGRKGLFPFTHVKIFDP
T4 sequence (P46109 123-183 limits assumed): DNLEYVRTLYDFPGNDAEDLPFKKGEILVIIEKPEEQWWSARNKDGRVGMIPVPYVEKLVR
T5 sequence (P46109 14-102 limits assumed): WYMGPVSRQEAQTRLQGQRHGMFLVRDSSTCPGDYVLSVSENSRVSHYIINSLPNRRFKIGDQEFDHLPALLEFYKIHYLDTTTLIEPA
T3 sequence (P46109 whole entry): as the sequence (P46109 whole entry) above

CNSTFLQEGMPTSAC [PSI-derived phage]
phage binding to recombinant CRKL (CRKL [1]): bind

CTNSTFLQEGMPTSARC [gst-PSI cyclic]
binding to CRKL (CRKL [2]): bind

TNSTFLQEGMPTSAR (left off: a dimerising Fc or GST; large carriers; small tags and cut ends) [gst-PSI linear, recombinant gst fusion of linear PSI region, residues 48-62]
binding to CRKL (CRKL [2]): bind

YRCTLNSPFFWEDMTHECHA (listed as Homo sapiens) [Peptide 6]
tumor growth / tumor volume [3]: no differences in tumor volume | tumor growth / tumor volume ([3]; listed as PSI domain-mimic peptide): no detectable effect | internalization (DU145 cells): mediates ligand-directed internalization | binding attributes to the CRKL-SH3 (C) domain (site-directed mutagenesis) (rCRKL-SH3 (C) domain [4]): dependent on the Pro residue and on the cyclic Cys-Cys disulfide bridge | binding to rCRKL-SH3 (C) domain (rCRKL-SH3 (C) domain [4]; peptide coated on microtiter plates): bind | binding to rCRKL (rCRKL): bound | binding to rCRKL-SH3 (N) domain (rCRKL-SH3 (N) domain): bind | binding through the SH2 domain (rCRKL-SH2 domain): little to no binding | inhibition of binding of the tumor-homing peptide to rCRKL-SH3 (C) domain (rCRKL-SH3 (C) domain [5]): inhibited
